According to patent publication US20110250165A1 (Dana-Farber, published 2011):

Assays:
human CXCR4 (wild type) [1] = target: T1, human CXCR4 (wild type) (human, UniProt P61073 1-352); experiment: FACS on 293T cells expressing CXCR4 variants
T1 construct: whole, on cells; also called wtCXCR4

[2] = target: T2, 2444b CXCR2/CXCR4 chimera (human, UniProt P25025 1-48; P61073 39-352, limits assumed); experiment: FACS on 293T cells expressing CXCR4 variants
4442 CXCR2/CXCR4 chimera [3] = experiment: FACS on 293T cells expressing CXCR4 variants
2442 CXCR2/CXCR4 chimera [4] = experiment: FACS on 293T cells expressing CXCR4 variants
human CXCR4 (wild type) [5] = target: T1, human CXCR4 (wild type); experiment: flow cytometry, scFv-Fc on transfected 293T cells, FITC anti-human IgG
Method: (§1) Epitope mapping experiments were performed to determine the binding sites for the anti-CXCR4 antibodies of the invention. (See Example 5. infra). […] Analysis was performed using a flow cytometer. Binding activity was measured by MFI on total cells gated. The following formula was used to calculate the reactivity:reactivity to each clone=(MFI of chimeric receptor/MFI of wild type CXCR4)×100%.
(§2) Thirty six hours after transfection, the cells were harvested. […] The cells were then washed two times with 0.5% BSA/PBS/0.02% NaN3.
(§3) Next, FITC-labeled secondary antibodies were added to the cells and were allowed to incubate at 4° C. for 30 minutes. The cells were then washed again two times with 0.5% BSA/PBS/0.02% NaN3. Following the second wash, FACS analysis was performed.

CXCR2 = target: T3, CXCR2 (UniProt P25025 1-360, limits assumed); experiment: as above
T3 construct: whole, on cells; also called 2222
T3 sequence (looked up): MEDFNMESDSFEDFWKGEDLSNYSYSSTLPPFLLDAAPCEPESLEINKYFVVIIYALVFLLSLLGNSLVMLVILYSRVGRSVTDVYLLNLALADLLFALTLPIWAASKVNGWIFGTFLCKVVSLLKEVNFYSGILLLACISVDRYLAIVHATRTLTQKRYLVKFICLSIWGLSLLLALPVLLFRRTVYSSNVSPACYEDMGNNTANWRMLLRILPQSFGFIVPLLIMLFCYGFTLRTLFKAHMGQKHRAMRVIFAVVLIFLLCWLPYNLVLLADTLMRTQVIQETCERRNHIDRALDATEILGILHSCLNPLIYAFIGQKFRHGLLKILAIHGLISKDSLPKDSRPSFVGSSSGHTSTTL
Method: as §1, §2, §3

Δ-X4 = experiment: as above
Method: as §1, §2, §3

[6] = target: T2, 2444b CXCR2/CXCR4 chimera; experiment: as above
Method: as §1, §2, §3

4442 CXCR2/CXCR4 chimera [7] = experiment: as above
Method: as §1, §2, §3

2442 CXCR2/CXCR4 chimera [8] = experiment: as above
Method: as §1, §2, §3

2242 CXCR2/CXCR4 chimera = experiment: as above
Method: as §1, §2, §3

[9] = target: T4, rhesus macaque monkey CXCR4 (rhesus macaque, UniProt P79394 1-352); experiment: as above
T4 construct: whole, on cells
Method: as §1, §2, §3

mouse CXCR4 = target: T5, mouse CXCR4 (mouse, UniProt P70658 1-359); experiment: as above
T5 construct: whole, on cells; also called mice CXCR4
Method: as §1, §2, §3

T1 sequence (P61073 whole entry): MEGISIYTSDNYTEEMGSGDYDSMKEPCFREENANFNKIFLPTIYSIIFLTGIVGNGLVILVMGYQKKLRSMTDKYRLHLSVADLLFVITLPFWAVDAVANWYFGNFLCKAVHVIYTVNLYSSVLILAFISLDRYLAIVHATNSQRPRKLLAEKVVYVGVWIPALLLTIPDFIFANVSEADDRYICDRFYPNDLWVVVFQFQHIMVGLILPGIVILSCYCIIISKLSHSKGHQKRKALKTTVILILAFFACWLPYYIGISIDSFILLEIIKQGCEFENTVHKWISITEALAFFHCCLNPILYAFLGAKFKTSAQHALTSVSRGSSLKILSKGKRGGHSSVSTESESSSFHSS
T4 sequence (P79394 whole entry): as the sequence (P61073 whole entry) above, with M24I, N35H, K38R, R146K, N176S, V214D counted along it
T5 sequence (P70658 whole entry): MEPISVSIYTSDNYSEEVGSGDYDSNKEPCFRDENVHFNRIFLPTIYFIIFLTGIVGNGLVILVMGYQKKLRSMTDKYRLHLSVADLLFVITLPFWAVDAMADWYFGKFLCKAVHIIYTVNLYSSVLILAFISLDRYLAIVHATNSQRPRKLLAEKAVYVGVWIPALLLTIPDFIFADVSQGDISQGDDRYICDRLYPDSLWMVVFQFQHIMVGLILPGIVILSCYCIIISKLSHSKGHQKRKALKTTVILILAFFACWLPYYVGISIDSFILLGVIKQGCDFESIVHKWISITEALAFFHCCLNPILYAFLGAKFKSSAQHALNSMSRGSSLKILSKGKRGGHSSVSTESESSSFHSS

B1: 33-IgG1 (antibody, V domains shown)
VH: QVTLKESGGGVVQPGRSLRLSCAASGFTFTNYGLHWVRQAPGKGLEWVAVISHDGTKKYYADSVKGRFTISRDSSENTLYLQMNSLRPEDSALYYCARDGGYCSGGRCYSYGMDVWGQGTTVTVSS
VL: QSVLTQPPSASGTPGQRVTISCSGSRSNIGSNTVNWYQQLPGTAPKLLIYTNNQRPSGVPDRFSGSKSGTSASLAITGLQAEDEADYYCLSFDSSLTSYVFGTGTKVTVLG
notes: Bivalent whole human IgG1, VH and VL subcloned into human IgG1 lambda light chain expression vector TCAE6; also called mAb 33
binding (+%) (human CXCR4 (wild type) [1]): 100%
binding (+%) [2]: 1%
binding (+%) (4442 CXCR2/CXCR4 chimera [3]): 99.5%
binding (+%) (2442 CXCR2/CXCR4 chimera [4]): 1.5%

B2: 18-Fc (Fc fusion)
VH: QVQLVQSGAEVKKPGASVKVSCKASGYTFTSYGISWVRQAPGQGLEWMGWISAYNGNTNYAQKLQGRVTMTTDTSTSTAYMELRSLRSDDTAVYYCARDTPGIAARRYYYYGMDVWGQGTTVTVSS
VL: SSELTQDPAVSVALGQTVRITCQGDSLRKFFASWYQQKPGQAPVLVIYGKNSRPSGIPDRFSGSNSRNTASLTITGAQAEDEGDYYCNSRDSRDNHQVFGAGTKVTVL
notes: scFv-Fc fusion; also called X18; scFv-Fc 18
reactivity (MFI of chimeric receptor/MFI of wild type CXCR4 x 100%) (human CXCR4 (wild type) [5]): 100%
reactivity (MFI of chimeric receptor/MFI of wild type CXCR4 x 100%) (CXCR2): 2%
reactivity (MFI of chimeric receptor/MFI of wild type CXCR4 x 100%) (Δ-X4): 48.1%
reactivity (MFI of chimeric receptor/MFI of wild type CXCR4 x 100%) [6]: 28.5%
reactivity (MFI of chimeric receptor/MFI of wild type CXCR4 x 100%) (4442 CXCR2/CXCR4 chimera [7]): 35.2%
reactivity (MFI of chimeric receptor/MFI of wild type CXCR4 x 100%) (2442 CXCR2/CXCR4 chimera [8]): 37.8%
reactivity (MFI of chimeric receptor/MFI of wild type CXCR4 x 100%) (2242 CXCR2/CXCR4 chimera): 10.1%
reactivity (MFI of chimeric receptor/MFI of wild type CXCR4 x 100%) [9]: 89.1%
reactivity (MFI of chimeric receptor/MFI of wild type CXCR4 x 100%) (mouse CXCR4): 13.1%

B3: 19-Fc (Fc fusion)
VH: QVQLVQSGGGVVQPGRSLRLSCAASGFTFSSYPMHWVRQAPGKGLEWMTVISSDGRNKYYPDSVKGRFTISRDNSKNTLYLQMNSLRPEDTAVYYCARGGYHDFWSGPDYWGQGTLVTVSS
VL: EIVLTQSPATLSVSPGERATLSCRASQSVNTNLAWYQQKPGQAPRLLIYGASSRATGIPDRFSGSGSGTDFTLTISRLEPEDFAVYYCQHYGSSPLTFGGGTKLEIK
notes: scFv-Fc fusion; also called X19; scFv-Fc 19
reactivity (MFI of chimeric receptor/MFI of wild type CXCR4 x 100%) (human CXCR4 (wild type) [5]): 100%
reactivity (MFI of chimeric receptor/MFI of wild type CXCR4 x 100%) (CXCR2): 7.5%
reactivity (MFI of chimeric receptor/MFI of wild type CXCR4 x 100%) (Δ-X4): 11%
reactivity (MFI of chimeric receptor/MFI of wild type CXCR4 x 100%) [6]: 8.5%
reactivity (MFI of chimeric receptor/MFI of wild type CXCR4 x 100%) (4442 CXCR2/CXCR4 chimera [7]): 5.3%
reactivity (MFI of chimeric receptor/MFI of wild type CXCR4 x 100%) (2442 CXCR2/CXCR4 chimera [8]): 7.1%
reactivity (MFI of chimeric receptor/MFI of wild type CXCR4 x 100%) (2242 CXCR2/CXCR4 chimera): 5.2%
reactivity (MFI of chimeric receptor/MFI of wild type CXCR4 x 100%) [9]: 35.1%
reactivity (MFI of chimeric receptor/MFI of wild type CXCR4 x 100%) (mouse CXCR4): 5.6%

B4: 48-IgG1 (antibody, V domains shown)
VH: QVQLVQSGGGVVLPGRSLRLSCVASGFTFRRYGMHWVRQAPGKGLEWVSLISYDGSKTFYGESVKGRFTISRDNSKNTLYLQMNSLRAEDTAVYYCARATVTTDGYYYMDVWGKGTTVTVSS
VL: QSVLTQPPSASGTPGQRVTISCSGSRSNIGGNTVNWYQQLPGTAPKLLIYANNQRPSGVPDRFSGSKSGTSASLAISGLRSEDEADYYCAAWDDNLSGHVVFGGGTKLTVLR
notes: Bivalent whole human IgG1, VH and VL subcloned into human IgG1 lambda light chain expression vector TCAE6; also called mAb 48
binding (+%) (human CXCR4 (wild type) [1]): 100%
binding (+%) [2]: -2.3%
binding (+%) (4442 CXCR2/CXCR4 chimera [3]): 91.9%
binding (+%) (2442 CXCR2/CXCR4 chimera [4]): -2.9%
